According to PMC10314757:
pKd: −log10 of the molar value.

Legend:
[1] = target: FcγRIIIb (CD16b) (UniProt O75015); assay: SPR; BIAcore X100; receptor (20 µg/mL) captured by anti-His-tag antibodies on a CM5 chip, each receptor on its own chip; charge variant as analyte, 2.5 µM to 40 µM, single-cycle; HBS-EP buffer (10 mM HEPES pH 7.4, 150 mM NaCl, 50 µM EDTA, 0.005% P20)
[2] = target: FcγRIIIa (CD16a) (UniProt P08637); assay: as above

Row | Substance | pKd [1] | koff [1] [s⁻¹] | kon [1] [M⁻¹ s⁻¹] | koff [2] [s⁻¹] | kon [2] [M⁻¹ s⁻¹]
1 | trastuzumab proposed biosimilar, acidic charge variants (acidic peak) (antibody) | 4.84 | 0.82 | 106000 | – | –
2 | trastuzumab proposed biosimilar, basic charge variants (basic peak) (antibody) | – | 0.33 | 25600 | – | –
3 | trastuzumab proposed biosimilar, main charge variant (main peak) (antibody) | – | 0.34 | 15400 | – | –
4 | trastuzumab proposed biosimilar, acidic charge variants (acidic peak) (antibody; other documents disagree on this pair) | – | – | – | 0.08 | 102000
5 | trastuzumab proposed biosimilar, basic charge variants (basic peak) (antibody; other documents disagree on this pair) | – | – | – | 0.05 | 31300
6 | trastuzumab proposed biosimilar, main charge variant (main peak) (antibody; other documents disagree on this pair) | – | – | – | 0.09 | 36600
